The labels stand for the following.
B2: human βTrCP protein (h-βTrCP) (other)
chain: MDPAEAVLQEKALKFMNSSEREDCNNGEPPRKIIPEKNSLRQTYNSCARLCLNQETVCLASTAMKTENCVAKTKLANGTSSMIVPKQRKLSASYEKEKELCVKYFEQWSESDQVEFVEHLISQMCHYQHGHINSYLKPMLQRDFITALPARGLDHIAENILSYLDAKSLCAAELVCKEWYRVTSDGMLWKKLIERMVRTDSLWRGLAERRGWGQYLFKNKPPDGNAPPNSFYRALYPKIIQDIETIESNWRCGRHSLQRIHCRSETSKGVYCLQYDDQKIVSGLRDNTIKIWDKNTLECKRILTGHTGSVLCLQYDERVIITGSSDSTVRVWDVNTGEMLNTLIHHCEAVLHLRFNNGMMVTCSKDRSIAVWDMASPTDITLRRVLVGHRAAVNVVDFDDKYIVSASGDRTIKVWNTSTCEFVRTLNGHKRGIACLQYRDRLVVSGSSDNTIRLWDIECGACLRVLEGHEELVRCIRFDNKRIVSGAYDGKIKVWDLVAALDPRAPAGTLCLRTLVEHSGRVFRLQFDEFQIVSSSHDDTILIWDFLNDPAAQAEPPRSPSRTYTYISR
notes: 569 amino acids; also called whole h-βTrCP protein

The target in test [1] is endogenous IκBα protein of 293 or Hela cells, phosphorylated form (human) (UniProt P25963). Description: cell-based or functional assay.
The target of test [2] is B2. Description: yeast two-hybrid.
Test [3] has as its target T1, βCat (whole normal β-catenin protein) (UniProt P35222 1-781).
T1 construct: Two-hybrid hybrid; also called whole β-catenin protein
T1 sequence (looked up): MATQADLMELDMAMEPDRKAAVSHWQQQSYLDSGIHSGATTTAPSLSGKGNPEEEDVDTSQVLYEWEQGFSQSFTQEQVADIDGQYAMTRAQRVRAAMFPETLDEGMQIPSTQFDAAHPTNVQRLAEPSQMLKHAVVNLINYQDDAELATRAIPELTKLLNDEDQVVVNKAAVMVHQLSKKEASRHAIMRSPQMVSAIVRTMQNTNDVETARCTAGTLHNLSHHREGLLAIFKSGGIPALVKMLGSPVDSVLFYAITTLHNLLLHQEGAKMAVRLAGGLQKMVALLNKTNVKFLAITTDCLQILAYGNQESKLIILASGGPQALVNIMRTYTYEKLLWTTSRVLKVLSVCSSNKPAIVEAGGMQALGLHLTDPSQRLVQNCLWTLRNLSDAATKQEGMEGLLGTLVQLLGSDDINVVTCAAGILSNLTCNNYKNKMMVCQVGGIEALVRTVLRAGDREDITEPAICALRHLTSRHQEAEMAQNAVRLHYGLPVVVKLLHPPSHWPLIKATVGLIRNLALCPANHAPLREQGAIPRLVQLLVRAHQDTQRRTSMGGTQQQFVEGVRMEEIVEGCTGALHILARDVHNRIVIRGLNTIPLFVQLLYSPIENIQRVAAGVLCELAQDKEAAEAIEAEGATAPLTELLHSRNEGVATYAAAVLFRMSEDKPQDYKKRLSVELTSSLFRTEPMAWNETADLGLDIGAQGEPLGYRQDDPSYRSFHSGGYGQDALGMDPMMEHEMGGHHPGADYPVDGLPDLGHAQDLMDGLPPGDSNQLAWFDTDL
The test is described as follows: yeast two-hybrid, FIG. 10.

Another test concerns the target human Skp1p protein (human, UniProt P63208 1-163). Description: yeast two-hybrid (strain L40).
The target of test [4] is B2. Description: yeast two-hybrid (His3 and LacZ reporters).
Test [5] has as its target T2, KIAA 0696 (βTrCP2), human βTrCP protein isolated by ISHIKAWA et al. (human, UniProt Q9UKB1 1-542, limits assumed).
T2 construct: Two-hybrid hybrid; also called βTCP2; KIA 696
T2 sequence (looked up): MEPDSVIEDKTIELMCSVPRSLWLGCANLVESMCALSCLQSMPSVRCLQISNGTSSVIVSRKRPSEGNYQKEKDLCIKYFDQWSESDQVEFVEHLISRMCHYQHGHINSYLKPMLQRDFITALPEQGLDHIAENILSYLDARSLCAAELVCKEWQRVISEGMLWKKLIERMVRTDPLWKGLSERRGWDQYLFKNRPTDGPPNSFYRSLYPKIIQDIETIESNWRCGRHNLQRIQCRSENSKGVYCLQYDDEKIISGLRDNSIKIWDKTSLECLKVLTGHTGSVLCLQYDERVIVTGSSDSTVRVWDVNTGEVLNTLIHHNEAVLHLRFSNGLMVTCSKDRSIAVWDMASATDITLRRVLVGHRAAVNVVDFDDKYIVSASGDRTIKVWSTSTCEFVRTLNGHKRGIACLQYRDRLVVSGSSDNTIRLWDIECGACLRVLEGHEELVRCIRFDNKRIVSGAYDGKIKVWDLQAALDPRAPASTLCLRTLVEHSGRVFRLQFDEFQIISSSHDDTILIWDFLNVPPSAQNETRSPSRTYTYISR
Description: yeast two-hybrid.

We go through 5 molecules from US6730486 (INSTITUT NATIONAL DE LA SANTE ET DE LA RECHERCHE MEDICALE, dated 2004).

human Skp1p protein, sequence (P63208 whole entry): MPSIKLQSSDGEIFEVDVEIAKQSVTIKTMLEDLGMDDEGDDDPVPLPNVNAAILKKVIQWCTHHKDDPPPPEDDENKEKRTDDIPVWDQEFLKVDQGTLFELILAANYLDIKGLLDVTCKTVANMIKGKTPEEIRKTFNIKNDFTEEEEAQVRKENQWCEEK

In test [1], “h-βTrCPΔF fragment (deleted residues: 32 to 179) (from UniProt Q9Y297 1-605)” displayed a fold decrease in transcription activation induced by TNFα (NFκB-dependent luciferase reporter, FIG. 7) of 20 fold.

B1: IκBα S32-36A (IκBα mutant at serines S32 and S36 so that there is no phosphorylation) (other, UniProt P25963 1-317, looked up)
chain: MFQAAERPQEWAMEGPRDGLKKERLLDDRHDAGLDAMKDEEYEQMVKELQEIRLEPQEVPRGSEPWKQQLTEDGDSFLHLAIIHEEKALTMEVIRQVKGDLAFLNFQNNLQQTPLHLAVITNQPEIAEALLGAGCDPELRDFRGNTPLHLACEQGCLASVGVLTQSCTTPHLHSILKATNYNGHTCLHLASIHGYLGIVELLVSLGADVNAQEPCNGRTALHLAVDLQNPDLVSLLLKCGADVNRVTYQGYSPYQLTWGRPSTRIQQQLGQLTLENLQMLPESEDEESYDTESEFTEFTEDELPYDDCVFGGQRLTL
notes: Two-hybrid hybrid; also called IκBα S32-36AA
As to B1, in test [2], the binding result is “no binding”.
Take B2: the binding result in test [3] is recorded as “binds”.

B3: cytoplasmic region of CD4 (CD4c) (receptor, UniProt P01730 419-458, looked up)
chain: CVRCRHRRRQAERMSQIKRLLSEKKTCQCPHRFQKTCSPI
notes: domain: cytoplasmic region; Two-hybrid fusion; also called CD4 cytoplasmic domain
For the molecule B3, the binding result (in the test with human Skp1p protein; in test [4]) was “no binding” in each case.

B4: βCat1→130 S33-37AA (oncogenic β-catenin protein mutated on serine residues S33 and S37 so that there is no phosphorylation) (other, UniProt P35222 1-130, looked up)
chain: MATQADLMELDMAMEPDRKAAVSHWQQQSYLDAGIHAGATTTAPSLSGKGNPEEEDVDTSQVLYEWEQGFSQSFTQEQVADIDGQYAMTRAQRVRAAMFPETLDEGMQIPSTQFDAAHPTNVQRLAEPSQ
notes: range 1-130; also called mutated β-catenin
With B4, the binding result in test [2] and in test [5] was “no binding” in each case.
